These are literature values, as cited in publication PMC11446229.

The target in data set [1] is IscS (Escherichia coli) (UniProt P0A6B7).
A further data set deals with SufS (Escherichia coli) (UniProt P77444). Kind of data set: surface plasmon resonance. (In general: Surface plasmon resonance follows binding to a sensor surface in real time, without labels.)
The next data set concerns the target SufS (Bacillus subtilis) (UniProt O32164).
Data set [2] addresses IscS (Escherichia coli) (UniProt P0A6B7). This is another data set of the same source.

Read-outs that look alike come from different tables or passages of the source.

Chain of IscS (Escherichia coli) (P0A6B7 whole entry): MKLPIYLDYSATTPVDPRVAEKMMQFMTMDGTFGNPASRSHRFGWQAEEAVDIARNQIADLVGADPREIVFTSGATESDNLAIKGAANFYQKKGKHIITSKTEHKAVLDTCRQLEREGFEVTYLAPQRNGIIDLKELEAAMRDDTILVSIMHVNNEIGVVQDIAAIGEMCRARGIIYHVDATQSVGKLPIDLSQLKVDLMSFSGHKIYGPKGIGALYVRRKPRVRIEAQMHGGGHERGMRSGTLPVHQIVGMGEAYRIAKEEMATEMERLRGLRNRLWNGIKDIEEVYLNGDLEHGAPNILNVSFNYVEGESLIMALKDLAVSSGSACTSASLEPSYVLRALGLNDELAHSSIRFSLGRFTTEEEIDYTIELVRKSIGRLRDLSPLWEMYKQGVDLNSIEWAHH
Chain of SufE (P76194 whole entry): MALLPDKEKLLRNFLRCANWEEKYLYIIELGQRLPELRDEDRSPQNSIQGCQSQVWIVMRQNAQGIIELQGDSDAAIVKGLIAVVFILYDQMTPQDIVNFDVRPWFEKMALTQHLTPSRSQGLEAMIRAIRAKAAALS
Chain of SufS (Escherichia coli) (P77444 whole entry): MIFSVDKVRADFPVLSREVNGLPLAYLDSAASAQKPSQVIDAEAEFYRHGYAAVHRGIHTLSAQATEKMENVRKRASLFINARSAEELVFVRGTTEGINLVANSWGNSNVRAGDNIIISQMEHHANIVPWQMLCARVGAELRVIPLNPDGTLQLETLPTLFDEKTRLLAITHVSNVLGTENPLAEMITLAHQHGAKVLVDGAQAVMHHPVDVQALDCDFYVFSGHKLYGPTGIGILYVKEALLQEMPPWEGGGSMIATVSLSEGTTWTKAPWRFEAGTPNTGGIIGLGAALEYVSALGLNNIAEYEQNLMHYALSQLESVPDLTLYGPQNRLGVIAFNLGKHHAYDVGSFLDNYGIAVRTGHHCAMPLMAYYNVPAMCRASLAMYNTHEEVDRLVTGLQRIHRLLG
Chain of TusA (P0A890 whole entry): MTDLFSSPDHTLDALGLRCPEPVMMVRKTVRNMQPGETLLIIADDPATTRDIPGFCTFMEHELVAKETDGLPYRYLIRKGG
Chain of SufU (O32163 whole entry): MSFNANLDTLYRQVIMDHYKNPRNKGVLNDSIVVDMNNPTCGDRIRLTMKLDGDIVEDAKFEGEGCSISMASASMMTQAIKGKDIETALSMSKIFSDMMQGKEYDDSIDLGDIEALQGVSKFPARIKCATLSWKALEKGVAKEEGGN
Chain of CyaY (P27838 whole entry): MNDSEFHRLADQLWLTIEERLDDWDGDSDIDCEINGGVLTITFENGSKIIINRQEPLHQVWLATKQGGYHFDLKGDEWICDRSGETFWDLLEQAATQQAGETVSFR
Chain of SufS (Bacillus subtilis) (O32164 whole entry): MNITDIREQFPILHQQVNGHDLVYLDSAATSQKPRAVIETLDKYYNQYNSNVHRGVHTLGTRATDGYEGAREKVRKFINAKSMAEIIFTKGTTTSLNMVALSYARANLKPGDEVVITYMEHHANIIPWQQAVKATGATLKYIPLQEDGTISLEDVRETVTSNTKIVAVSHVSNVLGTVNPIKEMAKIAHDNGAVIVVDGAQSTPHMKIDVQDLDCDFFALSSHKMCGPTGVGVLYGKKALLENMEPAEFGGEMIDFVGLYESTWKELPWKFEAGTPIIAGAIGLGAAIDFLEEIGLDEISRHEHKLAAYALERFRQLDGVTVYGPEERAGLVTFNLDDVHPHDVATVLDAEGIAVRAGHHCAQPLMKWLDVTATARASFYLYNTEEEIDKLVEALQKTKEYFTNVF

In the case of CyaY (from UniProt P27838), in the data set with IscS (Escherichia coli) [1], the Kd (as a rule, the concentration at which binding is half-saturated) is 23 µM. In the case of SufE (from UniProt P76194), the Kd in the data set with SufS (Escherichia coli) is 0.36 µM. Turning to SufU (from UniProt O32163), the Kd in the data set with SufS (Bacillus subtilis) is 3 µM. As for TusA (from UniProt P0A890), the Kd in the data set with IscS (Escherichia coli) [2] was 8 µM.
